Molecular target: T1, KaiC of unphosphorylated initial condition (Synechococcus elongatus) (UniProt Q79PF4)
T1 sequence (chain, unphosphorylated at the start of the incubation): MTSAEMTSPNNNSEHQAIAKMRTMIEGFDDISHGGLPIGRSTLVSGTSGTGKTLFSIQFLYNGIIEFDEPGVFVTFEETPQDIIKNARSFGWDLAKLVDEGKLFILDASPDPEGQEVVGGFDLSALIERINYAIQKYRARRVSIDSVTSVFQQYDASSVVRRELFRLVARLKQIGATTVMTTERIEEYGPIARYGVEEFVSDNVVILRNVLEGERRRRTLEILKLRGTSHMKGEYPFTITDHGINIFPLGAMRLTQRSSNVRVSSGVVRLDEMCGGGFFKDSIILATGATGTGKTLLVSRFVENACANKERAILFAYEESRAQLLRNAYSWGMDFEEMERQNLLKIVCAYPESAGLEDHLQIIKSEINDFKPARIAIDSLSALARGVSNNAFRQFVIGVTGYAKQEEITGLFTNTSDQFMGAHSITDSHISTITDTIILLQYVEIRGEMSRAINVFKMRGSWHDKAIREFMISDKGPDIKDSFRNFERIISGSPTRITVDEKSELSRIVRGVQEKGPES

B1: wild type KaiA (natural protein)
chain: MLSQIAICIWVESTAILQDCQRALSADRYQLQVCESGEMLLEYAQTHRDQIDCLILVAANPSFRAVVQQLCFEGVVVPAIVVGDRDSEDPDEPAKEQLYHSAELHLGIHQLEQLPYQVDAALAEFLRLAPVETMADHIMLMGANHDPELSSQQRDLAQRLQERLGYLGVYYKRDPDRFLRNLPAYESQKLHQAMQTSYREIVLSYFSPNSNLNQSIDNFVNMAFFADVPVTKVVEIHMELMDEFAKKLRVEGRSEDILLDYRLTLIDVIAHLCEMYRRSIPRET
Binder B1 has a half-maximum concentration of KaiA for the phosphorylation of KaiC (3.5 µM) at 16 hr, 30°C (SDS-PAGE densitometry, sigmoid fit), against that for the highly phosphorylated initial condition of 5 fold.
